In PMC10786891, “Massively parallel profiling of RNA-targeting CRISPR-Cas13d”:
Substitutions are numbered along the chain they refer to. Numbers in names are those of the source.

T1: EsCas13d, nuclease-dead (Eubacterium siraeum, UniProt B0MS50, R295A;H300A;R849A;H854A)
T1 sequence: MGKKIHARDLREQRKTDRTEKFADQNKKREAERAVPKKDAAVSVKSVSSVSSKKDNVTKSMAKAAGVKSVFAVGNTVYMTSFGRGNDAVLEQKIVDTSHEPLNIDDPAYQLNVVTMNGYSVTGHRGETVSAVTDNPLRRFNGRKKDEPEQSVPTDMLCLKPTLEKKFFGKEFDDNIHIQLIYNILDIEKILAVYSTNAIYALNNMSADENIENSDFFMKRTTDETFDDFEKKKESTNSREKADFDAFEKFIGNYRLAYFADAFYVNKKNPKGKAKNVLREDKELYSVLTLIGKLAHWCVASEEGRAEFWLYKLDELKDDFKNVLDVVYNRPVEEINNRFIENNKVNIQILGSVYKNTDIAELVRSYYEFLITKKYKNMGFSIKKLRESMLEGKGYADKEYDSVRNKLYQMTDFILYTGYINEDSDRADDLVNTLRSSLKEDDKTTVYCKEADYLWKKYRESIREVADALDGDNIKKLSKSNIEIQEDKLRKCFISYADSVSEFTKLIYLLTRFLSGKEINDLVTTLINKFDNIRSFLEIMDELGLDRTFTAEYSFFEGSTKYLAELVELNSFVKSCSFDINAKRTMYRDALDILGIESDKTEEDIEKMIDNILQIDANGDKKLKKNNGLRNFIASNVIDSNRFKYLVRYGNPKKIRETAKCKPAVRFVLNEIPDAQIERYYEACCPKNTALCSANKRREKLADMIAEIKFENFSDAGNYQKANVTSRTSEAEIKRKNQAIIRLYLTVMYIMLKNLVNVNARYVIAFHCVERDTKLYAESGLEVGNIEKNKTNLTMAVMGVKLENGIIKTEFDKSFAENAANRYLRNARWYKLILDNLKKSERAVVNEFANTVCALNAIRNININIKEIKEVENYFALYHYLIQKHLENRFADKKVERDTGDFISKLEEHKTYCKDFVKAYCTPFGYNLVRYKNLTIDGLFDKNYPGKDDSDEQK

B1: target 1 MT 5'PFS UUA 3'PFS AGU (mixed)
RNA 1: CACCCGUGCAAAAAUGCAGGGGUCUAAAACUGAGCGGAUAACCUCUCUAUGG
RNA 2: GGGAAUGGAUCCACAUCUACGAAUUCUUACCAUAGAGAGGUUAUCCGCUCAAGUAGAUCGGAAGAGCACACGU
B2: target 1 MT 5'PFS AAG 3'PFS AUG (mixed)
RNA 1: B1 RNA 1
RNA 2: B1 RNA 2 with U27A, U28A, A29G, G53U, U54G
B3: target 1 MT 5'PFS CCG 3'PFS CUG (mixed)
RNA 1: B1 RNA 1
RNA 2: B1 RNA 2 with U27C, U28C, A29G, A52C, G53U, U54G
B4: target 1 MT 5'PFS GUC 3'PFS AAG (mixed)
RNA 1: B1 RNA 1
RNA 2: B1 RNA 2 with U27G, A29C, G53A, U54G
B5: target 1 MT 5'PFS CCA 3'PFS ACU (mixed)
RNA 1: B1 RNA 1
RNA 2: B1 RNA 2 with U27C, U28C, G53C
B6: target 1 MT 5'PFS CCG 3'PFS UAU (mixed)
RNA 1: B1 RNA 1
RNA 2: B1 RNA 2 with U27C, U28C, A29G, A52U, G53A
B7: target 1 MT 5'PFS GCC 3'PFS AAC (mixed)
RNA 1: B1 RNA 1
RNA 2: B1 RNA 2 with U27G, U28C, A29C, G53A, U54C
B8: target 1 MT 5'PFS GCC 3'PFS CCG (mixed)
RNA 1: B1 RNA 1
RNA 2: B1 RNA 2 with U27G, U28C, A29C, A52C, G53C, U54G
B9: target 1 MT 5'PFS GCG 3'PFS CAA (mixed)
RNA 1: B1 RNA 1
RNA 2: B1 RNA 2 with U27G, U28C, A29G, A52C, G53A, U54A
B10: target 1 MT 5'PFS GUC 3'PFS UCU (mixed)
RNA 1: B1 RNA 1
RNA 2: B1 RNA 2 with U27G, A29C, A52U, G53C
B11: target 1 MT 5'PFS CUA 3'PFS AUG (mixed)
RNA 1: B1 RNA 1
RNA 2: B1 RNA 2 with U27C, G53U, U54G
B12: target 1 MT 5'PFS CCA 3'PFS ACG (mixed)
RNA 1: B1 RNA 1
RNA 2: B1 RNA 2 with U27C, U28C, G53C, U54G
B13: target 1 MT 5'PFS AAG 3'PFS AUC (mixed)
RNA 1: B1 RNA 1
RNA 2: B1 RNA 2 with U27A, U28A, A29G, G53U, U54C
B14: target 1 MT 5'PFS CCG 3'PFS UAG (mixed)
RNA 1: B1 RNA 1
RNA 2: B1 RNA 2 with U27C, U28C, A29G, A52U, G53A, U54G
B15: target 1 MT 5'PFS ACA 3'PFS CAU (mixed)
RNA 1: B1 RNA 1
RNA 2: B1 RNA 2 with U27A, U28C, A52C, G53A
B16: target 1 MT 5'PFS GCG 3'PFS ACU (mixed)
RNA 1: B1 RNA 1
RNA 2: B1 RNA 2 with U27G, U28C, A29G, G53C
B17: target 1 MT 5'PFS GCC 3'PFS AAA (mixed)
RNA 1: B1 RNA 1
RNA 2: B1 RNA 2 with U27G, U28C, A29C, G53A, U54A
B18: target 1 MT 5'PFS GUC 3'PFS CGU (mixed)
RNA 1: B1 RNA 1
RNA 2: B1 RNA 2 with U27G, A29C, A52C
B19: target 1 MT 5'PFS CCG 3'PFS UAC (mixed)
RNA 1: B1 RNA 1
RNA 2: B1 RNA 2 with U27C, U28C, A29G, A52U, G53A, U54C
B20: target 1 U11G,G12U (mixed)
RNA 1: B1 RNA 1
RNA 2: B1 RNA 2 with U27G, G40U, U41G, A52C, G53C, U54G
B21: target 1 MT 5'PFS GCC 3'PFS AAG (mixed)
RNA 1: B1 RNA 1
RNA 2: B1 RNA 2 with U27G, U28C, A29C, G53A, U54G
B22: target 1 MT 5'PFS GCC 3'PFS AAU (mixed)
RNA 1: B1 RNA 1
RNA 2: B1 RNA 2 with U27G, U28C, A29C, G53A
B23: target 1 MT 5'PFS CUC 3'PFS UAA (mixed)
RNA 1: B1 RNA 1
RNA 2: B1 RNA 2 with U27C, A29C, A52U, G53A, U54A
B24: target 1 G15A,C21U (mixed)
RNA 1: B1 RNA 1
RNA 2: B1 RNA 2 with U27G, C31U, G37A, A52C, G53C, U54G
B25: target 1 MT 5'PFS GUC 3'PFS AAA (mixed)
RNA 1: B1 RNA 1
RNA 2: B1 RNA 2 with U27G, A29C, G53A, U54A
B26: target 1 MT 5'PFS CUA 3'PFS AUA (mixed)
RNA 1: B1 RNA 1
RNA 2: B1 RNA 2 with U27C, G53U, U54A
B27: target 1 MT 5'PFS AAG 3'PFS AUA (mixed)
RNA 1: B1 RNA 1
RNA 2: B1 RNA 2 with U27A, U28A, A29G, G53U, U54A
B28: target 1 MT 5'PFS CUA 3'PFS AUC (mixed)
RNA 1: B1 RNA 1
RNA 2: B1 RNA 2 with U27C, G53U, U54C
B29: target 1 MT 5'PFS GCG 3'PFS CAU (mixed)
RNA 1: B1 RNA 1
RNA 2: B1 RNA 2 with U27G, U28C, A29G, A52C, G53A
B30: target 1 MT 5'PFS CCG 3'PFS CUA (mixed)
RNA 1: B1 RNA 1
RNA 2: B1 RNA 2 with U27C, U28C, A29G, A52C, G53U, U54A
B31: target 1 MT 5'PFS GCG 3'PFS CAG (mixed)
RNA 1: B1 RNA 1
RNA 2: B1 RNA 2 with U27G, U28C, A29G, A52C, G53A, U54G
B32: target 1 MT 5'PFS CCG 3'PFS UAA (mixed)
RNA 1: B1 RNA 1
RNA 2: B1 RNA 2 with U27C, U28C, A29G, A52U, G53A, U54A
B33: target 1 MT 5'PFS CCG 3'PFS CUC (mixed)
RNA 1: B1 RNA 1
RNA 2: B1 RNA 2 with U27C, U28C, A29G, A52C, G53U, U54C
B34: target 1 MT 5'PFS GCG 3'PFS CAC (mixed)
RNA 1: B1 RNA 1
RNA 2: B1 RNA 2 with U27G, U28C, A29G, A52C, G53A, U54C
B35: target 1 C2G,G17A (mixed)
RNA 1: B1 RNA 1
RNA 2: B1 RNA 2 with U27G, G35A, C50G, A52C, G53C, U54G
B36: target 1 MT 5'PFS GUC 3'PFS UCG (mixed)
RNA 1: B1 RNA 1
RNA 2: B1 RNA 2 with U27G, A29C, A52U, G53C, U54G
B37: target 1 insG 3' of 18,insC 3' of 13 (mixed)
RNA 1: B1 RNA 1
RNA 2: GGGAAUGGAUCCACAUCUACGAAUUCGUACCAUAGGAGAGCGUUAUCCGCUCACCGAGAUCGGAAGAGCACACGU
B38: target 1 MT 5'PFS CUA 3'PFS AUU (mixed)
RNA 1: B1 RNA 1
RNA 2: B1 RNA 2 with U27C, G53U
B39: target 1 MT 5'PFS GUC 3'PFS UCC (mixed)
RNA 1: B1 RNA 1
RNA 2: B1 RNA 2 with U27G, A29C, A52U, G53C, U54C
B40: target 1 MT 5'PFS GUC 3'PFS UCA (mixed)
RNA 1: B1 RNA 1
RNA 2: B1 RNA 2 with U27G, A29C, A52U, G53C, U54A

Target: T1, EsCas13d, nuclease-dead
Test: crRNA (strand 1, pre-loaded); Mg2+; 40 mM Tris-HCl pH 7.5, 150 mM NaCl, 6 mM MgCl2, 1 mM DTT, 0.1% Tween-20, 0.2 mg/ml BSA; 25 C; 10 min per concentration, then washed
Details: tags: His6-TwinStrep-SUMO cleaved; N-terminal SNAP kept (SNAP-Surface 488); label: 3' end held by stalled T7 RNA polymerase

Binder	Kd
B1	74.5 ± 29 nM
B2	33 ± 8.5 nM
B3	1.95 ± 0.465 nM
B4	20.5 ± 5.5 nM
B5	14 ± 5.5 nM
B6	3.2 ± 1 nM
B7	23 ± 7.5 nM
B8	12.9 ± 3.15 nM
B9	49.5 ± 24.5 nM
B10	16.1 ± 3.15 nM
B11	37 ± 10 nM
B12	3.95 ± 1.6 nM
B13	26.5 ± 10 nM
B14	3.35 ± 0.595 nM
B15	~20 nM
B16	18.2 ± 3.9 nM
B17	59.5 ± 19 nM
B18	13.2 ± 1.9 nM
B19	~2.85 nM
B20	~50 nM

Binder	Kd
B21	28 ± 6.5 nM
B22	~27 nM
B23	59 ± 25 nM
B24	6.9 ± 0.4 nM
B25	38 ± 8 nM
B26	7.15 ± 1.5 nM
B27	26.6 ± 7.15 nM
B28	14.2 ± 3.1 nM
B29	~29 nM
B30	7.9 ± 2.9 nM
B31	~56.5 nM
B32	14.2 ± 4.6 nM
B33	3.15 ± 1 nM
B34	~42 nM
B35	25 ± 1.9 nM
B36	14.4 ± 2.7 nM
B37	70 ± 24 nM
B38	6.05 ± 1.65 nM
B39	11.2 ± 3.1 nM
B40	18.5 ± 5.5 nM
